The values below come from the RNAGym collection of RNA variant scans (doi:10.1093/molbev/msab373).

B1: Azoarcus group I ribozyme (parent)
chain: GUGCCUUGCGCCGGGAAACCACGCAAGGGAUGGUGUCAAAUUCGGCGAAACCUAAGCGCCCGCCCGGGCGUAUGGCAACGCCGAGCCAAGCUUCGGCGCCUGCGCCGAUGAAGGUGUAGAGACUAGACGGCACCCACCUAAGGCAAACGCUAUGGUGAAGGCAUAGUCCAGGGAGUGGCGAAAGUCACACAAACCGG

Variants of B1 are the subject of the series. Kind of series: reverse-splicing fitness (ratio to wild type); higher = more active; in vitro selection; Mg2+ level not given. An outline of the steps: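 An in vitro group I ribozyme library with randomized positions was T7-transcribed and gel-purified. In triplicate, 10 pmol RNA in EPPS pH 7.5 was reacted with 50 pmoles of a 30-nt RNA substrate for 1 h at 37 °C across several added MgCl2 levels (1–48 mM), then stopped with EDTA. Products were reverse transcribed from a substrate-complementary primer, PCR-amplified and sequenced (HiSeq 4000). Fitness is a variant's read proportion after selection over that before, normalised to wild type.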
As for GUGCCUUGCGCCGGGAAACCACGCAAGGGAUGGUGUCAAAUUCGGCGAAACCUAAGCGCCCGCCCGGGCGUAUGGCAACGCAGAGCCAAGCUUCGGCGCCUGCGCCGAUGGAGGUGUAGAGACUAGACGGCACCCACCUAAGGCGAACGCUAUGGUGAAGGCAUAGUCCAGGGAGAGGCGAAAGUCACACAAACCGG, the reverse-splicing fitness turned out to be 0.184. Consider GUGCCUUGCGCCGGGAAACCACGCAAGGGAUGGUGUCAAAUUCGGCGAAACCUAAGCGCCCGCCCGGGCGUAUGGCAACGCCGAGCCAAGCUUCGGCGCCUGCGCCGAUGAAGGUGUAGUGACUAGACGGCACCCACCUAAGGCUAACGGUAUGGUGAAGGCAUAGUCAAGGGAGGGGCGAAAGUCACACAAACCGG, for which the reverse-splicing fitness came to 0.00241.

With GUGCCUUGCGCCGGGAAACCACGCAAGGGAUGGUGUCAAAUUCGGCGAAACCUAAGCGCCCGCCCGGGCGUAUGGCAACGCAGAGCCAAGCUUCGGCGCCUGCGCCGAUGUAGGUGUAGGGACUAGACGGCACCCACCUAAGGCGAACGUUAUGGUGAAGGCAUAGUCUAGGGAGUGGCGAAAGUCACACAAACCGG, the reverse-splicing fitness amounted to 0.0104. The figure for GUGCCUUGCGCCGGGAAACCACGCAAGGGAUGGUGUCAAAUUCGGCGAAACCUAAGCGCCCGCCCGGGCGUAUGGCAACGCAGAGCCAAGCUUCGGCGCCUGCGCCGAUGAAGGUGUAGAGACUAGACGGCACCCACCUAAGGCUAACGAUAUGGUGAAGGCAUAGUCGAGGGAGGGGCGAAAGUCACACAAACCGG is 0.0059. Consider GUGCCUUGCGCCGGGAAACCACGCAAGGGAUGGUGUCAAAUUCGGCGAAACCUAAGCGCCCGCCCGGGCGUAUGGCAACGCCGAGCCAAGCUUCGGCGCCUGCGCCGAUGUAGGUGUAGUGACUAGACGGCACCCACCUAAGGCUAACGAUAUGGUGAAGGCAUAGUCGAGGGAGAGGCGAAAGUCACACAAACCGG, for which the reverse-splicing fitness stood at 0.00269. Next, GUGCCUUGCGCCGGGAAACCACGCAAGGGAUGGUGUCAAAUUCGGCGAAACCUAAGCGCCCGCCCGGGCGUAUGGCAACGCCGAGCCAAGCUUCGGCGCCUGCGCCGAUGAAGGUGUAGAGACUAGACGGCACCCACCUAAGGCGAACGAUAUGGUGAAGGCAUAGUCGAGGGAGUGGCGAAAGUCACACAAACCGG: 0.0594; GUGCCUUGCGCCGGGAAACCACGCAAGGGAUGGUGUCAAAUUCGGCGAAACCUAAGCGCCCGCCCGGGCGUAUGGCAACGCAGAGCCAAGCUUCGGCGCCUGCGCCGAUGGAGGUGUAGUGACUAGACGGCACCCACCUAAGGCAAACGAUAUGGUGAAGGCAUAGUCCAGGGAGAGGCGAAAGUCACACAAACCGG: 0.00595. GUGCCUUGCGCCGGGAAACCACGCAAGGGAUGGUGUCAAAUUCGGCGAAACCUAAGCGCCCGCCCGGGCGUAUGGCAACGCUGAGCCAAGCUUCGGCGCCUGCGCCGAUGAAGGUGUAGUGACUAGACGGCACCCACCUAAGGCUAACGUUAUGGUGAAGGCAUAGUCGAGGGAGUGGCGAAAGUCACACAAACCGG: the reverse-splicing fitness was found to be 0.00432. GUGCCUUGCGCCGGGAAACCACGCAAGGGAUGGUGUCAAAUUCGGCGAAACCUAAGCGCCCGCCCGGGCGUAUGGCAACGCAGAGCCAAGCUUCGGCGCCUGCGCCGAUGGAGGUGUAGGGACUAGACGGCACCCACCUAAGGCCAACGCUAUGGUGAAGGCAUAGUCCAGGGAGCGGCGAAAGUCACACAAACCGG: the reverse-splicing fitness is 0.0105. The figure for GUGCCUUGCGCCGGGAAACCACGCAAGGGAUGGUGUCAAAUUCGGCGAAACCUAAGCGCCCGCCCGGGCGUAUGGCAACGCCGAGCCAAGCUUCGGCGCCUGCGCCGAUGAAGGUGUAGUGACUAGACGGCACCCACCUAAGGCUAACGGUAUGGUGAAGGCAUAGUCCAGGGAGAGGCGAAAGUCACACAAACCGG is 0.122. For the variant GUGCCUUGCGCCGGGAAACCACGCAAGGGAUGGUGUCAAAUUCGGCGAAACCUAAGCGCCCGCCCGGGCGUAUGGCAACGCGGAGCCAAGCUUCGGCGCCUGCGCCGAUGUAGGUGUAGGGACUAGACGGCACCCACCUAAGGCGAACGGUAUGGUGAAGGCAUAGUCCAGGGAGCGGCGAAAGUCACACAAACCGG, the reverse-splicing fitness was 0.0109.

As to GUGCCUUGCGCCGGGAAACCACGCAAGGGAUGGUGUCAAAUUCGGCGAAACCUAAGCGCCCGCCCGGGCGUAUGGCAACGCUGAGCCAAGCUUCGGCGCCUGCGCCGAUGUAGGUGUAGAGACUAGACGGCACCCACCUAAGGCCAACGCUAUGGUGAAGGCAUAGUCUAGGGAGUGGCGAAAGUCACACAAACCGG, the reverse-splicing fitness amounted to 0.0102.

With GUGCCUUGCGCCGGGAAACCACGCAAGGGAUGGUGUCAAAUUCGGCGAAACCUAAGCGCCCGCCCGGGCGUAUGGCAACGCUGAGCCAAGCUUCGGCGCCUGCGCCGAUGGAGGUGUAGAGACUAGACGGCACCCACCUAAGGCCAACGAUAUGGUGAAGGCAUAGUCGAGGGAGUGGCGAAAGUCACACAAACCGG, the reverse-splicing fitness was found to be 0.0066. Next, GUGCCUUGCGCCGGGAAACCACGCAAGGGAUGGUGUCAAAUUCGGCGAAACCUAAGCGCCCGCCCGGGCGUAUGGCAACGCGGAGCCAAGCUUCGGCGCCUGCGCCGAUGUAGGUGUAGGGACUAGACGGCACCCACCUAAGGCCAACGAUAUGGUGAAGGCAUAGUCCAGGGAGAGGCGAAAGUCACACAAACCGG: 0.00962; GUGCCUUGCGCCGGGAAACCACGCAAGGGAUGGUGUCAAAUUCGGCGAAACCUAAGCGCCCGCCCGGGCGUAUGGCAACGCCGAGCCAAGCUUCGGCGCCUGCGCCGAUGGAGGUGUAGAGACUAGACGGCACCCACCUAAGGCUAACGCUAUGGUGAAGGCAUAGUCCAGGGAGUGGCGAAAGUCACACAAACCGG: 0.957.

With GUGCCUUGCGCCGGGAAACCACGCAAGGGAUGGUGUCAAAUUCGGCGAAACCUAAGCGCCCGCCCGGGCGUAUGGCAACGCGGAGCCAAGCUUCGGCGCCUGCGCCGAUGUAGGUGUAGCGACUAGACGGCACCCACCUAAGGCGAACGUUAUGGUGAAGGCAUAGUCGAGGGAGAGGCGAAAGUCACACAAACCGG, the reverse-splicing fitness was determined as 0.0154. The figure for GUGCCUUGCGCCGGGAAACCACGCAAGGGAUGGUGUCAAAUUCGGCGAAACCUAAGCGCCCGCCCGGGCGUAUGGCAACGCCGAGCCAAGCUUCGGCGCCUGCGCCGAUGGAGGUGUAGUGACUAGACGGCACCCACCUAAGGCAAACGGUAUGGUGAAGGCAUAGUCCAGGGAGAGGCGAAAGUCACACAAACCGG is 0.0102; for GUGCCUUGCGCCGGGAAACCACGCAAGGGAUGGUGUCAAAUUCGGCGAAACCUAAGCGCCCGCCCGGGCGUAUGGCAACGCCGAGCCAAGCUUCGGCGCCUGCGCCGAUGGAGGUGUAGGGACUAGACGGCACCCACCUAAGGCUAACGAUAUGGUGAAGGCAUAGUCUAGGGAGGGGCGAAAGUCACACAAACCGG it is 0.00518. Next, GUGCCUUGCGCCGGGAAACCACGCAAGGGAUGGUGUCAAAUUCGGCGAAACCUAAGCGCCCGCCCGGGCGUAUGGCAACGCCGAGCCAAGCUUCGGCGCCUGCGCCGAUGGAGGUGUAGAGACUAGACGGCACCCACCUAAGGCGAACGCUAUGGUGAAGGCAUAGUCAAGGGAGGGGCGAAAGUCACACAAACCGG: 0.00526. The figure for GUGCCUUGCGCCGGGAAACCACGCAAGGGAUGGUGUCAAAUUCGGCGAAACCUAAGCGCCCGCCCGGGCGUAUGGCAACGCUGAGCCAAGCUUCGGCGCCUGCGCCGAUGCAGGUGUAGAGACUAGACGGCACCCACCUAAGGCUAACGGUAUGGUGAAGGCAUAGUCGAGGGAGUGGCGAAAGUCACACAAACCGG is 0.00721; for GUGCCUUGCGCCGGGAAACCACGCAAGGGAUGGUGUCAAAUUCGGCGAAACCUAAGCGCCCGCCCGGGCGUAUGGCAACGCAGAGCCAAGCUUCGGCGCCUGCGCCGAUGCAGGUGUAGAGACUAGACGGCACCCACCUAAGGCCAACGGUAUGGUGAAGGCAUAGUCUAGGGAGUGGCGAAAGUCACACAAACCGG it is 0.0102.

Consider GUGCCUUGCGCCGGGAAACCACGCAAGGGAUGGUGUCAAAUUCGGCGAAACCUAAGCGCCCGCCCGGGCGUAUGGCAACGCAGAGCCAAGCUUCGGCGCCUGCGCCGAUGCAGGUGUAGGGACUAGACGGCACCCACCUAAGGCUAACGAUAUGGUGAAGGCAUAGUCAAGGGAGAGGCGAAAGUCACACAAACCGG, for which the reverse-splicing fitness came out at 0.0115.

Take GUGCCUUGCGCCGGGAAACCACGCAAGGGAUGGUGUCAAAUUCGGCGAAACCUAAGCGCCCGCCCGGGCGUAUGGCAACGCGGAGCCAAGCUUCGGCGCCUGCGCCGAUGUAGGUGUAGGGACUAGACGGCACCCACCUAAGGCGAACGUUAUGGUGAAGGCAUAGUCCAGGGAGAGGCGAAAGUCACACAAACCGG: the reverse-splicing fitness worked out at 0.00946. The figure for GUGCCUUGCGCCGGGAAACCACGCAAGGGAUGGUGUCAAAUUCGGCGAAACCUAAGCGCCCGCCCGGGCGUAUGGCAACGCAGAGCCAAGCUUCGGCGCCUGCGCCGAUGCAGGUGUAGAGACUAGACGGCACCCACCUAAGGCCAACGCUAUGGUGAAGGCAUAGUCAAGGGAGCGGCGAAAGUCACACAAACCGG is 0.00942; for GUGCCUUGCGCCGGGAAACCACGCAAGGGAUGGUGUCAAAUUCGGCGAAACCUAAGCGCCCGCCCGGGCGUAUGGCAACGCAGAGCCAAGCUUCGGCGCCUGCGCCGAUGAAGGUGUAGCGACUAGACGGCACCCACCUAAGGCAAACGUUAUGGUGAAGGCAUAGUCGAGGGAGAGGCGAAAGUCACACAAACCGG it is 0.0152. The figure for GUGCCUUGCGCCGGGAAACCACGCAAGGGAUGGUGUCAAAUUCGGCGAAACCUAAGCGCCCGCCCGGGCGUAUGGCAACGCCGAGCCAAGCUUCGGCGCCUGCGCCGAUGAAGGUGUAGUGACUAGACGGCACCCACCUAAGGCAAACGUUAUGGUGAAGGCAUAGUCGAGGGAGCGGCGAAAGUCACACAAACCGG is 0.0569; for GUGCCUUGCGCCGGGAAACCACGCAAGGGAUGGUGUCAAAUUCGGCGAAACCUAAGCGCCCGCCCGGGCGUAUGGCAACGCAGAGCCAAGCUUCGGCGCCUGCGCCGAUGGAGGUGUAGCGACUAGACGGCACCCACCUAAGGCGAACGCUAUGGUGAAGGCAUAGUCUAGGGAGCGGCGAAAGUCACACAAACCGG it is 0.0146; for GUGCCUUGCGCCGGGAAACCACGCAAGGGAUGGUGUCAAAUUCGGCGAAACCUAAGCGCCCGCCCGGGCGUAUGGCAACGCUGAGCCAAGCUUCGGCGCCUGCGCCGAUGCAGGUGUAGUGACUAGACGGCACCCACCUAAGGCGAACGCUAUGGUGAAGGCAUAGUCGAGGGAGGGGCGAAAGUCACACAAACCGG it is 0.0017. Turning to GUGCCUUGCGCCGGGAAACCACGCAAGGGAUGGUGUCAAAUUCGGCGAAACCUAAGCGCCCGCCCGGGCGUAUGGCAACGCCGAGCCAAGCUUCGGCGCCUGCGCCGAUGGAGGUGUAGUGACUAGACGGCACCCACCUAAGGCCAACGGUAUGGUGAAGGCAUAGUCGAGGGAGUGGCGAAAGUCACACAAACCGG, the reverse-splicing fitness was 0.0104. The figure for GUGCCUUGCGCCGGGAAACCACGCAAGGGAUGGUGUCAAAUUCGGCGAAACCUAAGCGCCCGCCCGGGCGUAUGGCAACGCUGAGCCAAGCUUCGGCGCCUGCGCCGAUGCAGGUGUAGGGACUAGACGGCACCCACCUAAGGCGAACGAUAUGGUGAAGGCAUAGUCGAGGGAGGGGCGAAAGUCACACAAACCGG is 0.00493.
